Measured values: publication doi:10.1101/2020.10.08.20209114 (medRxiv, 2020)

Biological target: SARS-CoV-2 S2 protein (SARS-CoV-2 (Wuhan-Hu-1 assumed), UniProt P0DTC2)
Test: ELISA

B1: monoclonal antibody 7F3 (antibody, V domains shown)
VH: EVQLVESGGGLVKPGRSLRLSCTASGFTFGDYAMSWFRQAPGKGLEWVGFIRSKAYGGTTEYAASVKGRFTISRDDSKSIAYLQMNSLKTEDTAVYYCTRDRYARYDILTGLSPAGADYFYYAMDVWGQGTTVTVSS
VL: EIVLTQSPATLSLSPGERATLSCRASQSVSSYLAWYQQKPGQAPRLLIYDASNRATGIPARFSGSGSGTDFTLTISSLEPEDFAVYYCQQRSNWPQYTFGQGTKLEIK
binding result: no binding

B2: monoclonal antibody 4L12 (antibody, V domains shown)
VH: EVQLVESGGGLVQPGGSLRLSCAASGITVSSNYMNWVRQAPGRGLEWVSLLYSGGSTYYADSVKGRFTISRDNSKNTLYLQMNSLRAEDTAVYYCARDLITYGMDVWGQGTTVTVSS
VL: AIQLTQSPSSLSASVGDRVTITCRASQGISSYLAWYQQKPGKAPKLLIYAASTLQSGVPSRFSGSGSGTDFTLTISSLQPEDFATYYCQQLNSYPPLTFGGGTKVEIK
binding result: no binding
